From the RNAGym collection of RNA variant scans (doi:10.7554/elife.90254)

B1: LINE1-full (parent)
chain: UACGUAGGUGGUUUUCCCCUGAUAGUGCUAAGGGGGCCUGGAAGUUUGGACUGGGCAGAGCUCAACACAGCGUGGCAAAGUGGCUGUGGCUAGACUGCCUCUCUGGAUUCCUCGUCACUCAGCAGGGCAUCUCUGAGAGAAAUGCC

Variants of: B1
Experiment: self-cleavage, relative activity (ratio to wild type); higher = more cleavage; in vitro, sequencing; the parent is a self-cleaving ribozyme

Row | Variant | self-cleavage
1 | A50G A142G | 0.9
2 | A50G A142C | 1.07
3 | G49A U52C | 1.35
4 | A50G U119C | 1.11
5 | G49U A78G | 0.91
6 | G49A C133G | 1.39
7 | A50G A78C | 0
8 | A50U U73A | 0.89
9 | A50G G53U | 0
10 | A50G G53A | 1.09
11 | A50G U109A | 0.84
12 | A50G U109C | 0.96
13 | A50G A67G | 0.37
14 | G49U C95G | 0.04
15 | G49A U130C | 1.55
16 | A50G C113A | 0.35
17 | A50G U96C | 0.1
18 | A50G U96A | 0.04
19 | G49U G127A | 0.27
20 | A50G A57G | 0.32
21 | A50G A57U | 0.14
22 | A50G G89A | 0.06
23 | A50U A136U | 1.21
24 | A50G A79U | 1.09

Row | Variant | self-cleavage
25 | G49C U130C | 1.67
26 | A50U C66U | 0.01
27 | G49U U134A | 1.19
28 | G49U U134C | 1.63
29 | G49A G72A | 1.45
30 | A50C A142G | 1.78
31 | A50C A67G | 0.62
32 | G49U A94U | 0.32
33 | A50U A64G | 0.16
34 | A50C U143C | 0.82
35 | A50U U102A | 1.63
36 | A50U U102C | 1.17
37 | G49C A140G | 1.51
38 | A50G C63A | 0.02
39 | A50G U52A | 0.91
40 | A50U C118U | 1.02
41 | G49A U108C | 1.54
42 | A50G G97A | 0.06
43 | A50G G55A | 0.15
44 | A50U A141G | 0.68
45 | A50U A124U | 1.11
46 | A50U U62A | 0.01
47 | A50U C111U | 0.77
48 | G49U U62C | 0.08

Row | Variant | self-cleavage
49 | G49A U85C | 0.1
50 | A50G U91C | 0.35
51 | A50G U104A | 0.85
52 | A50U A77U | 0.83
53 | A50U A77G | 0.43
54 | A50U C63U | 0.2
55 | A50U C63A | 0
56 | A50C U91C | 0.48
57 | A50G U62G | 0.1
58 | A50G U62C | 0.1
59 | A50G U62A | 0.09
60 | A50G | 0.9
61 | A50C | 1.34
62 | A50U | 1
63 | A50C A136C | 2.04
64 | A50U A59G | 0.04
65 | A50G A92G | 0.19
66 | A50G G60A | 0.04
67 | A50G U112A | 1.02
68 | A50U U52C | 0.89
69 | A50U U52A | 1.17
70 | A50C U132C | 1.02
71 | A50G U100C | 0.98
72 | G49U | 0.94

Row | Variant | self-cleavage
73 | G49C | 1.15
74 | A50U G74U | 1.04
75 | A50C A124G | 1.29
76 | A50C U130C | 1.51
77 | G49A A142G | 0.98
78 | G49U A142G | 0.85
79 | A50G G88A | 0.06
80 | A50G C118U | 0.71
81 | A50G A69C | 0
82 | A50U G80C | 0.82
83 | A50G U130C | 1.05
84 | A50G C95U | 0.03
85 | A50G C95A | 0.05
86 | A50G G139U | 0.37
87 | A50U U85C | 0.14
88 | A50U G89A | 0.02
89 | A50C U73G | 0.79
90 | A50G U132A | 1.34
91 | A50G U132G | 1.15
92 | A50U U143A | 1.47
93 | A50G C61U | 0.05
94 | A50G C128U | 0.36
95 | A50U U112A | 1.15
96 | G49A U62C | 0.03

Row | Variant | self-cleavage
97 | G49U U109C | 0.95
98 | G49U U143C | 0.84
99 | A50U A140U | 0.92
100 | A50U G55A | 0.08
101 | A50G A107G | 1.1
102 | G49A U115C | 1.33
103 | A50G A124G | 0.51
104 | A50G A124U | 0.79
105 | A50U A94G | 0.29
106 | A50G C90G | 0.06
107 | A50U A138U | 1.16
108 | A50U A138C | 1.21
109 | A50G A77G | 1.42
110 | A50G A77U | 0.73
111 | A50U G54U | 0.66
112 | A50G A121C | 1.23
113 | A50U U134A | 0.92
114 | A50U U134C | 0.98
115 | G49A U112C | 1.45
116 | A50G G122U | 1.09
117 | A50G A64G | 0.42
118 | A50G A64C | 0.37
119 | A50G A64U | 0.39
120 | A50U U96G | 0.3

Row | Variant | self-cleavage
121 | A50U U96A | 0.03
122 | A50U U96C | 0.1
123 | A50G A140U | 0.93
124 | A50G A140G | 0.94
125 | A50G C99U | 0.43
126 | G49C U115C | 2.02
127 | A50G U134C | 0.86
128 | A50G U134G | 0.19
129 | A50G U102G | 0.51
130 | G49U U81C | 1.54
131 | A50C U109C | 0.97
132 | A50G A117G | 1.97
133 | A50G A117U | 0.91
134 | C51A | 1.31
135 | A50G U115A | 0.95
136 | A50G U115C | 1.42
137 | G49A G54A | 0.18
138 | A50G G74A | 0.48
139 | A50G U143A | 1.7
140 | A50G U143C | 0.95
141 | A50U U119A | 0.83
142 | A50U U119C | 1.47
143 | A50G U85A | 0.05
144 | A50G U85C | 0.1

Row | Variant | self-cleavage
145 | A50C A64G | 0.63
146 | A50C A64U | 0.4
147 | A50U U87A | 0.1
148 | A50U U87C | 0.23
149 | A50U C120A | 1.46
150 | A50G A138U | 0.95
151 | A50U U100A | 0.31
152 | A50U U100C | 0.81
153 | A50C A94G | 0
154 | G49A U100C | 1.96
155 | A50G A59U | 0.84
156 | A50G A59G | 0.26
157 | G49A U119C | 0.62
158 | A50C U87C | 0.13
159 | A50C U85A | 0.04
160 | A50C U85C | 0.06
161 | A50U A65G | 0.06
162 | A50U A69U | 0.07
163 | A50G G125A | 0.39
164 | A50G G114A | 0.98
165 | A50G C145A | 1.05
166 | A50U U108G | 1.11
167 | A50C A117U | 0.92
